Data on eight proteins can be found in article PMC5241874.

Sequences and labels used below:
B1: αγ heterodimer of human NAD-IDH (IDH3) (Homo sapiens; P51553:R136A) (protein)
chain 1: TGGVQTVTLIPGDGIGPEISAAVMKIFDAAKAPIQWEERNVTAIQGPGGKWMIPSEAKESMDKNKMGLKGPLKTPIAAGHPSMNLLLRKTFDLYANVRPCVSIEGYKTPYTDVNIVTIRENTEGEYSGIEHVIVDGVVQSIKLITEGASKRIAEFAFEYARNNHRSNVTAVHKANIMRMSDGLFLQKCREVAESCKDIKFNEMYLDTVCLNMVQDPSQFDVLVMPNLYGDILSDLCAGLIGGLGVTPSGNIGANGVAIFESVHGTAPDIAGKDMANPTALLLSAVMMLRHMGLFDHAARIEAACFATIKDGKSLTKDLGGNAKCSDFTEEICRRVKDLD
chain 2: FSEQTIPPSAKYGGRHTVTMIPGDGIGPELMLHVKSVFRHACVPVDFEEVHVSSNADEEDIRNAIMAIRRNRVALKGNIETNHNLPPSHKSRNNILATSLDLYANVIHCKSLPGVVTRHKDIDILIVRENTEGEYSSLEHESVAGVVESLKIITKAKSLRIAEYAFKLAQESGRKKVTAVHKANIMKLGDGLFLQCCREVAARYPQITFENMIVDNTTMQLVSRPQQFDVMVMPNLYGNIVNNVCAGLVGGPGLVAGANYGHVYAVFETATRNTGKSIANKNIANPTATLLASCMMLDHLKLHSYATSIRKAVLASMDNENMHTPDIGGQGTTSEAIQDVIRHIRVINGRAVEA
notes: alpha and gamma co-expressed in E. coli BL21(DE3) from pQlinkN; gamma C-terminal TEV-His6, His6 cleaved by TEV; 80 kDa heterodimer (dimer of heterodimers at high concentration)
B2: αγ heterodimer of human NAD-IDH (IDH3) (Homo sapiens; P51553:R311A) (protein)
chain 1: TGGVQTVTLIPGDGIGPEISAAVMKIFDAAKAPIQWEERNVTAIQGPGGKWMIPSEAKESMDKNKMGLKGPLKTPIAAGHPSMNLLLRKTFDLYANVRPCVSIEGYKTPYTDVNIVTIRENTEGEYSGIEHVIVDGVVQSIKLITEGASKRIAEFAFEYARNNHRSNVTAVHKANIMRMSDGLFLQKCREVAESCKDIKFNEMYLDTVCLNMVQDPSQFDVLVMPNLYGDILSDLCAGLIGGLGVTPSGNIGANGVAIFESVHGTAPDIAGKDMANPTALLLSAVMMLRHMGLFDHAARIEAACFATIKDGKSLTKDLGGNAKCSDFTEEICRRVKDLD
chain 2: FSEQTIPPSAKYGGRHTVTMIPGDGIGPELMLHVKSVFRHACVPVDFEEVHVSSNADEEDIRNAIMAIRRNRVALKGNIETNHNLPPSHKSRNNILRTSLDLYANVIHCKSLPGVVTRHKDIDILIVRENTEGEYSSLEHESVAGVVESLKIITKAKSLRIAEYAFKLAQESGRKKVTAVHKANIMKLGDGLFLQCCREVAARYPQITFENMIVDNTTMQLVSRPQQFDVMVMPNLYGNIVNNVCAGLVGGPGLVAGANYGHVYAVFETATANTGKSIANKNIANPTATLLASCMMLDHLKLHSYATSIRKAVLASMDNENMHTPDIGGQGTTSEAIQDVIRHIRVINGRAVEA
notes: as for B1
B3: αγ heterodimer of human NAD-IDH (IDH3) (Homo sapiens; P51553:Y276F) (protein)
chain 1: TGGVQTVTLIPGDGIGPEISAAVMKIFDAAKAPIQWEERNVTAIQGPGGKWMIPSEAKESMDKNKMGLKGPLKTPIAAGHPSMNLLLRKTFDLYANVRPCVSIEGYKTPYTDVNIVTIRENTEGEYSGIEHVIVDGVVQSIKLITEGASKRIAEFAFEYARNNHRSNVTAVHKANIMRMSDGLFLQKCREVAESCKDIKFNEMYLDTVCLNMVQDPSQFDVLVMPNLYGDILSDLCAGLIGGLGVTPSGNIGANGVAIFESVHGTAPDIAGKDMANPTALLLSAVMMLRHMGLFDHAARIEAACFATIKDGKSLTKDLGGNAKCSDFTEEICRRVKDLD
chain 2: FSEQTIPPSAKYGGRHTVTMIPGDGIGPELMLHVKSVFRHACVPVDFEEVHVSSNADEEDIRNAIMAIRRNRVALKGNIETNHNLPPSHKSRNNILRTSLDLYANVIHCKSLPGVVTRHKDIDILIVRENTEGEYSSLEHESVAGVVESLKIITKAKSLRIAEYAFKLAQESGRKKVTAVHKANIMKLGDGLFLQCCREVAARYPQITFENMIVDNTTMQLVSRPQQFDVMVMPNLFGNIVNNVCAGLVGGPGLVAGANYGHVYAVFETATRNTGKSIANKNIANPTATLLASCMMLDHLKLHSYATSIRKAVLASMDNENMHTPDIGGQGTTSEAIQDVIRHIRVINGRAVEA
notes: as for B1
B4: αγ heterodimer of human NAD-IDH (IDH3) (Homo sapiens; P51553:K190A) (protein)
chain 1: TGGVQTVTLIPGDGIGPEISAAVMKIFDAAKAPIQWEERNVTAIQGPGGKWMIPSEAKESMDKNKMGLKGPLKTPIAAGHPSMNLLLRKTFDLYANVRPCVSIEGYKTPYTDVNIVTIRENTEGEYSGIEHVIVDGVVQSIKLITEGASKRIAEFAFEYARNNHRSNVTAVHKANIMRMSDGLFLQKCREVAESCKDIKFNEMYLDTVCLNMVQDPSQFDVLVMPNLYGDILSDLCAGLIGGLGVTPSGNIGANGVAIFESVHGTAPDIAGKDMANPTALLLSAVMMLRHMGLFDHAARIEAACFATIKDGKSLTKDLGGNAKCSDFTEEICRRVKDLD
chain 2: FSEQTIPPSAKYGGRHTVTMIPGDGIGPELMLHVKSVFRHACVPVDFEEVHVSSNADEEDIRNAIMAIRRNRVALKGNIETNHNLPPSHKSRNNILRTSLDLYANVIHCKSLPGVVTRHKDIDILIVRENTEGEYSSLEHESVAGVVESLAIITKAKSLRIAEYAFKLAQESGRKKVTAVHKANIMKLGDGLFLQCCREVAARYPQITFENMIVDNTTMQLVSRPQQFDVMVMPNLYGNIVNNVCAGLVGGPGLVAGANYGHVYAVFETATRNTGKSIANKNIANPTATLLASCMMLDHLKLHSYATSIRKAVLASMDNENMHTPDIGGQGTTSEAIQDVIRHIRVINGRAVEA
notes: as for B1
B5: αγ heterodimer of human NAD-IDH (IDH3) (Homo sapiens; P50213:Y255F) (protein)
chain 1: TGGVQTVTLIPGDGIGPEISAAVMKIFDAAKAPIQWEERNVTAIQGPGGKWMIPSEAKESMDKNKMGLKGPLKTPIAAGHPSMNLLLRKTFDLYANVRPCVSIEGYKTPYTDVNIVTIRENTEGEYSGIEHVIVDGVVQSIKLITEGASKRIAEFAFEYARNNHRSNVTAVHKANIMRMSDGLFLQKCREVAESCKDIKFNEMYLDTVCLNMVQDPSQFDVLVMPNLFGDILSDLCAGLIGGLGVTPSGNIGANGVAIFESVHGTAPDIAGKDMANPTALLLSAVMMLRHMGLFDHAARIEAACFATIKDGKSLTKDLGGNAKCSDFTEEICRRVKDLD
chain 2: FSEQTIPPSAKYGGRHTVTMIPGDGIGPELMLHVKSVFRHACVPVDFEEVHVSSNADEEDIRNAIMAIRRNRVALKGNIETNHNLPPSHKSRNNILRTSLDLYANVIHCKSLPGVVTRHKDIDILIVRENTEGEYSSLEHESVAGVVESLKIITKAKSLRIAEYAFKLAQESGRKKVTAVHKANIMKLGDGLFLQCCREVAARYPQITFENMIVDNTTMQLVSRPQQFDVMVMPNLYGNIVNNVCAGLVGGPGLVAGANYGHVYAVFETATRNTGKSIANKNIANPTATLLASCMMLDHLKLHSYATSIRKAVLASMDNENMHTPDIGGQGTTSEAIQDVIRHIRVINGRAVEA
notes: as for B1
B6: αγ heterodimer of human NAD-IDH (IDH3) (Homo sapiens; P51553:Y174F) (protein)
chain 1: TGGVQTVTLIPGDGIGPEISAAVMKIFDAAKAPIQWEERNVTAIQGPGGKWMIPSEAKESMDKNKMGLKGPLKTPIAAGHPSMNLLLRKTFDLYANVRPCVSIEGYKTPYTDVNIVTIRENTEGEYSGIEHVIVDGVVQSIKLITEGASKRIAEFAFEYARNNHRSNVTAVHKANIMRMSDGLFLQKCREVAESCKDIKFNEMYLDTVCLNMVQDPSQFDVLVMPNLYGDILSDLCAGLIGGLGVTPSGNIGANGVAIFESVHGTAPDIAGKDMANPTALLLSAVMMLRHMGLFDHAARIEAACFATIKDGKSLTKDLGGNAKCSDFTEEICRRVKDLD
chain 2: FSEQTIPPSAKYGGRHTVTMIPGDGIGPELMLHVKSVFRHACVPVDFEEVHVSSNADEEDIRNAIMAIRRNRVALKGNIETNHNLPPSHKSRNNILRTSLDLYANVIHCKSLPGVVTRHKDIDILIVRENTEGEFSSLEHESVAGVVESLKIITKAKSLRIAEYAFKLAQESGRKKVTAVHKANIMKLGDGLFLQCCREVAARYPQITFENMIVDNTTMQLVSRPQQFDVMVMPNLYGNIVNNVCAGLVGGPGLVAGANYGHVYAVFETATRNTGKSIANKNIANPTATLLASCMMLDHLKLHSYATSIRKAVLASMDNENMHTPDIGGQGTTSEAIQDVIRHIRVINGRAVEA
notes: as for B1
B7: αγ heterodimer of human NAD-IDH (IDH3) (Homo sapiens; P51553:D229A) (protein)
chain 1: TGGVQTVTLIPGDGIGPEISAAVMKIFDAAKAPIQWEERNVTAIQGPGGKWMIPSEAKESMDKNKMGLKGPLKTPIAAGHPSMNLLLRKTFDLYANVRPCVSIEGYKTPYTDVNIVTIRENTEGEYSGIEHVIVDGVVQSIKLITEGASKRIAEFAFEYARNNHRSNVTAVHKANIMRMSDGLFLQKCREVAESCKDIKFNEMYLDTVCLNMVQDPSQFDVLVMPNLYGDILSDLCAGLIGGLGVTPSGNIGANGVAIFESVHGTAPDIAGKDMANPTALLLSAVMMLRHMGLFDHAARIEAACFATIKDGKSLTKDLGGNAKCSDFTEEICRRVKDLD
chain 2: FSEQTIPPSAKYGGRHTVTMIPGDGIGPELMLHVKSVFRHACVPVDFEEVHVSSNADEEDIRNAIMAIRRNRVALKGNIETNHNLPPSHKSRNNILRTSLDLYANVIHCKSLPGVVTRHKDIDILIVRENTEGEYSSLEHESVAGVVESLKIITKAKSLRIAEYAFKLAQESGRKKVTAVHKANIMKLGAGLFLQCCREVAARYPQITFENMIVDNTTMQLVSRPQQFDVMVMPNLYGNIVNNVCAGLVGGPGLVAGANYGHVYAVFETATRNTGKSIANKNIANPTATLLASCMMLDHLKLHSYATSIRKAVLASMDNENMHTPDIGGQGTTSEAIQDVIRHIRVINGRAVEA
notes: as for B1
B8: αγ heterodimer of human NAD-IDH (IDH3) (Homo sapiens; P51553:R167A) (protein)
chain 1: TGGVQTVTLIPGDGIGPEISAAVMKIFDAAKAPIQWEERNVTAIQGPGGKWMIPSEAKESMDKNKMGLKGPLKTPIAAGHPSMNLLLRKTFDLYANVRPCVSIEGYKTPYTDVNIVTIRENTEGEYSGIEHVIVDGVVQSIKLITEGASKRIAEFAFEYARNNHRSNVTAVHKANIMRMSDGLFLQKCREVAESCKDIKFNEMYLDTVCLNMVQDPSQFDVLVMPNLYGDILSDLCAGLIGGLGVTPSGNIGANGVAIFESVHGTAPDIAGKDMANPTALLLSAVMMLRHMGLFDHAARIEAACFATIKDGKSLTKDLGGNAKCSDFTEEICRRVKDLD
chain 2: FSEQTIPPSAKYGGRHTVTMIPGDGIGPELMLHVKSVFRHACVPVDFEEVHVSSNADEEDIRNAIMAIRRNRVALKGNIETNHNLPPSHKSRNNILRTSLDLYANVIHCKSLPGVVTRHKDIDILIVAENTEGEYSSLEHESVAGVVESLKIITKAKSLRIAEYAFKLAQESGRKKVTAVHKANIMKLGDGLFLQCCREVAARYPQITFENMIVDNTTMQLVSRPQQFDVMVMPNLYGNIVNNVCAGLVGGPGLVAGANYGHVYAVFETATRNTGKSIANKNIANPTATLLASCMMLDHLKLHSYATSIRKAVLASMDNENMHTPDIGGQGTTSEAIQDVIRHIRVINGRAVEA
notes: as for B1

Substrate in the first data set: O=C(O)CC(C(=O)O)C(O)C(=O)O
As to the kind of experiment: purified protein. The format is biochemical, Homo sapiens. The settings on record: no activators, 2 mM Mn2+, 3.2 mM NAD, 33 mM Tris-acetate pH 7.4, 25 °C, Hill 2.0, racemic DL-ICT varied, Hill 1.0.
The kcat/Km is the turnover number divided by the Michaelis constant. In the case of B1, the K0.5 turned out to be 4.51 ± 0.43 mM and the kcat/Km was determined as 330 ± 10 M⁻¹ s⁻¹.

As for B2, the K0.5 was 19.3 ± 1.0 mM and the kcat/Km was 210 ± 10 M⁻¹ s⁻¹.

Take B3: the K0.5 was 14.8 ± 0.5 mM and the kcat/Km came out at 250 ± 10 M⁻¹ s⁻¹.

Staying with this data set, now noted: no activators, 2 mM Mn2+, 3.2 mM NAD, 33 mM Tris-acetate pH 7.4, 25 °C, Hill 2.0, racemic DL-ICT varied, Hill 1.1.
Turning to B4, the K0.5 is 8.12 ± 0.16 mM and the kcat/Km is 90 ± 2 M⁻¹ s⁻¹.

Turning to B5, the K0.5 is listed as 14.5 ± 0.9 mM and the specificity constant (kcat/Km) was 46 ± 2 M⁻¹ s⁻¹.

For B6, the K0.5 was determined as 8.80 ± 0.54 mM and the kcat/Km worked out at 270 ± 10 M⁻¹ s⁻¹.

As to B7, the K0.5 is listed as 10.2 ± 0.6 mM and the kcat/Km is 730 ± 40 M⁻¹ s⁻¹.

Take B8: the K0.5 is 8.57 ± 0.42 mM and the kcat/Km turned out to be 260 ± 10 M⁻¹ s⁻¹.
